Test results taken from US9382316B2, “Humanized anti-EMAP II antibody and use thereof” (Cell & Bio Co., Ltd., dated 2016).
Values joined by “and” are separate entries in the source; they are usually repeats but may differ in a detail not shown here. Identical values can stand only once.

T1: human EMAPII (endothelial monocyte activating polypeptide II) antigen (human)
T1 chain: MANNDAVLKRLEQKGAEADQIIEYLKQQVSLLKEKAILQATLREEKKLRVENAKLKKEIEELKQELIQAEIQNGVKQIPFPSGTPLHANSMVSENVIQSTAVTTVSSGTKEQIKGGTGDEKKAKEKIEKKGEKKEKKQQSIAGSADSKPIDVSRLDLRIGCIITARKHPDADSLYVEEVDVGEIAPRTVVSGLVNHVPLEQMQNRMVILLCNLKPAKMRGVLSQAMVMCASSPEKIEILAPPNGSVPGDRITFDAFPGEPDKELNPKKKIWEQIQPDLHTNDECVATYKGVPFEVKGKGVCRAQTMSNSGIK


Columns and labels:
[1] = target: T1, human EMAPII (endothelial monocyte …); assay: ELISA, plate coated with EMAPII antigen, anti-mouse IgG-HRP detection
[2] = target: T1, human EMAPII (endothelial monocyte …); assay: ELISA, plate coated with 2.5 ug/ml EMAPII antigen, anti-human-IgG HRP detection; range over the 3 clones

EC50 [1] [mg/L]	EC50 [2]	Binder
0.0209		mouse anti-EMAPII monoclonal antibody (antibody, V domains shown) VH: QVQLQQSGAELARPGASVKMSCKASGYTFTSYTMHWVKQRPGQGLEWIGYINPSSGFTNYNQKFKDKATLTADKSSSTAYMQLSSLTSEDSAVYYCASRFAYWGQGTLVTVSA VL: DIVMTQSHKFMSTSVGDRVSITCKASQDVSTAVAWYQQKPGQSPKLLIFSASYRYTGVPDRFTGSGSGTDFTFTISSVQAEDLAVYYCQQHYSTPYTFGGGTKLEIK
	0.0215 mg/L and 0.0302 mg/L	mouse/human chimeric antibody BAP015_1 (antibody, V domains shown) VH: QVQLQQSGAELARPGASVKMSCKASGYTFTSYTMHWVKQRPGQGLEWIGYINPSSGFTNYNQKFKDKATLTADKSSSTAYMQLSSLTSEDSAVYYCASRFAYWGQGTLVTVSA VL: DIVMTQSHKFMSTSVGDRVSITCKASQDVSTAVAWYQQKPGQSPKLLIFSASYRYTGVPDRFTGSGSGTDFTFTISSVQAEDLAVYYCQQHYSTPYTFGGGTKLEIK
